In this data set the target is T1, Cre recombinase (Punavirus P1).
T1 chain: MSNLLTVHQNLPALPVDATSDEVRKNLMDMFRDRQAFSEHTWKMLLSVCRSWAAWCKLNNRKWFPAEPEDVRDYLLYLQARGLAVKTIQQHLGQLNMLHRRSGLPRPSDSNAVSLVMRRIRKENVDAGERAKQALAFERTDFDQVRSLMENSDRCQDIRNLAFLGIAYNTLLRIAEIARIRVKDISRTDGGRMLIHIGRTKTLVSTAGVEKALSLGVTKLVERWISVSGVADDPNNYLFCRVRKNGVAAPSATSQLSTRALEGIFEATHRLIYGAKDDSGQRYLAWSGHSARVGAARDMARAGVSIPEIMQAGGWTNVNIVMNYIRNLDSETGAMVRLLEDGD
The data set can be described thus: cell_activity; as above. From the text:
Similar to the development of the original LoxPsym site by Hoess et al. (1986 J Cell Biochem), we edited the spacer of the LoxP site to obtain new non-directional recombination sites. In doing so, we focused on altering the first three nucleotides of the spacer (FIG. 2), as it was shown before that changing the nucleotides at position 4 and 5 of the spacer (T and A respectively) prevents recombination (Hoess et al 1986). The last three nucleotides were adapted accordingly to ensure the spacer remained palindromic. As such, we were able to design maximally 63 new potential LoxPsym sites. To test if the Cre enzyme was still able to recombine the new LoxPsym variants, we conducted a fluorescent-based assay in yeast via genomic integration of a fluorescence cassette which was flanked by identical LoxPsym variants at both sites (FIGS. 3A and 3C). Recombination of functional LoxPsym variants enables the deletion of the fluorescence cassette. The fraction of non-fluorescent cells in the population after induction of Cre-mediated recombination, was used to determine the recombination efficiency of the new LoxPsym sites. To verify if this set-up is valid for estimation of the recombination efficiency, the dual-fluorescent-reporter system shown in FIG. 3A was used to assess the frequency of inversion/deletion over time. […] Recombination efficiencies largely altered between different LoxPsym variants (Table 1). 63 new LoxPsym variants were obtained with altering recombination efficiencies ranging from 13% to 89%.

B1: LoxPsym-CAG (dsDNA)
DNA 1: ATAACTTCGTATACAGTACTGTATACGAAGTTAT
DNA 2: ATAACTTCGTATACAGTACTGTATACGAAGTTAT
As for B1, the activity amounted to 79.9%.

B2: LoxPsym-CGG (dsDNA)
DNA 1: ATAACTTCGTATACGGTACCGTATACGAAGTTAT
DNA 2: ATAACTTCGTATACGGTACCGTATACGAAGTTAT
In the case of B2, the activity was determined as 81.5%.

B3: LoxPsym-TTC (dsDNA)
DNA 1: ATAACTTCGTATATTCTAGAATATACGAAGTTAT
DNA 2: ATAACTTCGTATATTCTAGAATATACGAAGTTAT
Regarding B3, the activity was determined as 62.3%.

B4: LoxPsym-GTA (dsDNA)
DNA 1: ATAACTTCGTATAGTATATACTATACGAAGTTAT
DNA 2: ATAACTTCGTATAGTATATACTATACGAAGTTAT
In the case of B4, the activity came out at 64.3%.

B5: LoxPsym-GTT (dsDNA)
DNA 1: ATAACTTCGTATAGTTTAAACTATACGAAGTTAT
DNA 2: ATAACTTCGTATAGTTTAAACTATACGAAGTTAT
Consider B5, for which the activity worked out at 64.6%.

B6: LoxPsym-TCC (dsDNA)
DNA 1: ATAACTTCGTATATCCTAGGATATACGAAGTTAT
DNA 2: ATAACTTCGTATATCCTAGGATATACGAAGTTAT
For B6, the activity amounted to 80%.

B7: LoxPsym-TGC (dsDNA)
DNA 1: ATAACTTCGTATATGCTAGCATATACGAAGTTAT
DNA 2: ATAACTTCGTATATGCTAGCATATACGAAGTTAT
With B7, the activity was found to be 72%.

B8: LoxPsym-CGC (dsDNA)
DNA 1: ATAACTTCGTATACGCTAGCGTATACGAAGTTAT
DNA 2: ATAACTTCGTATACGCTAGCGTATACGAAGTTAT
Take B8: the activity amounted to 69.4%.

B9: LoxPsym-TAC (dsDNA)
DNA 1: ATAACTTCGTATATACTAGTATATACGAAGTTAT
DNA 2: ATAACTTCGTATATACTAGTATATACGAAGTTAT
As for B9, the activity amounted to 75.3%.

B10: LoxPsym-TAG (dsDNA)
DNA 1: ATAACTTCGTATATAGTACTATATACGAAGTTAT
DNA 2: ATAACTTCGTATATAGTACTATATACGAAGTTAT
With B10, the activity is 70.3%.

B11: LoxPsym-GAC (dsDNA)
DNA 1: ATAACTTCGTATAGACTAGTCTATACGAAGTTAT
DNA 2: ATAACTTCGTATAGACTAGTCTATACGAAGTTAT
For B11, the activity came to 67.4%.

B12: LoxPsym-TAT (dsDNA)
DNA 1: ATAACTTCGTATATATTAATATATACGAAGTTAT
DNA 2: ATAACTTCGTATATATTAATATATACGAAGTTAT
As for B12, the activity stood at 89.3%.

B13: LoxPsym-TGT (dsDNA)
DNA 1: ATAACTTCGTATATGTTAACATATACGAAGTTAT
DNA 2: ATAACTTCGTATATGTTAACATATACGAAGTTAT
Regarding B13, the activity worked out at 82.4%.

B14: LoxPsym-TTG (dsDNA)
DNA 1: ATAACTTCGTATATTGTACAATATACGAAGTTAT
DNA 2: ATAACTTCGTATATTGTACAATATACGAAGTTAT
For B14, the activity came to 80.6%.

B15: LoxPsym-CCC (dsDNA)
DNA 1: ATAACTTCGTATACCCTAGGGTATACGAAGTTAT
DNA 2: ATAACTTCGTATACCCTAGGGTATACGAAGTTAT
As to B15, the activity stood at 67.2%.

B16: LoxPsym-TAA (dsDNA)
DNA 1: ATAACTTCGTATATAATATTATATACGAAGTTAT
DNA 2: ATAACTTCGTATATAATATTATATACGAAGTTAT
B16: the activity was 65.5%.

B17: LoxPsym-GCC (dsDNA)
DNA 1: ATAACTTCGTATAGCCTAGGCTATACGAAGTTAT
DNA 2: ATAACTTCGTATAGCCTAGGCTATACGAAGTTAT
As to B17, the activity turned out to be 65.1%.

B18: LoxPsym-TTA (dsDNA)
DNA 1: ATAACTTCGTATATTATATAATATACGAAGTTAT
DNA 2: ATAACTTCGTATATTATATAATATACGAAGTTAT
Turning to B18, the activity stood at 35.8%.

B19: LoxPsym-TGG (dsDNA)
DNA 1: ATAACTTCGTATATGGTACCATATACGAAGTTAT
DNA 2: ATAACTTCGTATATGGTACCATATACGAAGTTAT
As for B19, the activity came out at 69.1%.

B20: LoxPsym-GGA (dsDNA)
DNA 1: ATAACTTCGTATAGGATATCCTATACGAAGTTAT
DNA 2: ATAACTTCGTATAGGATATCCTATACGAAGTTAT
Turning to B20, the activity stood at 37.1%.

B21: LoxPsym-ACT (dsDNA)
DNA 1: ATAACTTCGTATAACTTAAGTTATACGAAGTTAT
DNA 2: ATAACTTCGTATAACTTAAGTTATACGAAGTTAT
On to B21, for which the activity came to 70.5%.

B22: LoxPsym-GAT (dsDNA)
DNA 1: ATAACTTCGTATAGATTAATCTATACGAAGTTAT
DNA 2: ATAACTTCGTATAGATTAATCTATACGAAGTTAT
As for B22, the activity is 36.9%.

B23: LoxPsym-GCT (dsDNA)
DNA 1: ATAACTTCGTATAGCTTAAGCTATACGAAGTTAT
DNA 2: ATAACTTCGTATAGCTTAAGCTATACGAAGTTAT
As for B23, the activity was 37.2%.

B24: LoxPsym-GCG (dsDNA)
DNA 1: ATAACTTCGTATAGCGTACGCTATACGAAGTTAT
DNA 2: ATAACTTCGTATAGCGTACGCTATACGAAGTTAT
In the case of B24, the activity stood at 79.2%.

B25: LoxPsym-GGT (dsDNA)
DNA 1: ATAACTTCGTATAGGTTAACCTATACGAAGTTAT
DNA 2: ATAACTTCGTATAGGTTAACCTATACGAAGTTAT
As to B25, the activity stood at 38%.

B26: LoxPsym-AAT (dsDNA)
DNA 1: ATAACTTCGTATAAATTAATTTATACGAAGTTAT
DNA 2: ATAACTTCGTATAAATTAATTTATACGAAGTTAT
For the molecule B26, the activity was 71.1%.

B27: LoxPsym-CAT (dsDNA)
DNA 1: ATAACTTCGTATACATTAATGTATACGAAGTTAT
DNA 2: ATAACTTCGTATACATTAATGTATACGAAGTTAT
Consider B27, for which the activity came out at 79.1%.

B28: LoxPsym-CCG (dsDNA)
DNA 1: ATAACTTCGTATACCGTACGGTATACGAAGTTAT
DNA 2: ATAACTTCGTATACCGTACGGTATACGAAGTTAT
For B28, the activity came to 76%.
